Measured values reported in patent US20260071002A1 (Hoffmann-La Roche, published 2026).
Residue numbers refer to the chain shown, from its start.

T1: human CEACAM1 (human, UniProt P13688 35-526)
T1 construct: whole, on cells; also called CHO-CEACAM1
T1 sequence (looked up): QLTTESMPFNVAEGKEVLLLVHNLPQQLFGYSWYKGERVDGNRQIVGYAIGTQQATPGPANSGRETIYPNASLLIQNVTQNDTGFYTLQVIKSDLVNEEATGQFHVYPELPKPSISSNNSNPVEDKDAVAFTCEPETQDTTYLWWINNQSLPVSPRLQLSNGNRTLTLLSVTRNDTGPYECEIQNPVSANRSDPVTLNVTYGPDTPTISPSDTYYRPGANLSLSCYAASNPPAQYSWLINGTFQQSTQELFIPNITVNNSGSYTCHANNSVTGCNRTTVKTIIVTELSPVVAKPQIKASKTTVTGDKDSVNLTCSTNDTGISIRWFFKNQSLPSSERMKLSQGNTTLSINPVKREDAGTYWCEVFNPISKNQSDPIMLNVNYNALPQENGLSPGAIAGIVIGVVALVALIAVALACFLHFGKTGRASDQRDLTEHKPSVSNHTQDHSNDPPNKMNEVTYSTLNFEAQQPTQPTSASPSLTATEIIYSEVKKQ

T2: human CEACAM6 (human, UniProt P40199 35-320)
T2 construct: whole, on cells; also called CHO-CEACAM6
T2 sequence (looked up): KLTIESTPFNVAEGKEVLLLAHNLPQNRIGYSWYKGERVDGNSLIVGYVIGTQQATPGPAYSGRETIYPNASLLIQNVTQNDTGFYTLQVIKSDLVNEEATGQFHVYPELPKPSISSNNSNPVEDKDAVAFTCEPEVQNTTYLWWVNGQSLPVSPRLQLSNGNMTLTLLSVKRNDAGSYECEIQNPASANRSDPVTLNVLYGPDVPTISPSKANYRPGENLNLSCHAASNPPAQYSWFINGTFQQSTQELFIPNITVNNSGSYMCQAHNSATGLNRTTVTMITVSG

T3: human CEACAM5 (human, UniProt P06731 35-685)
T3 construct: whole, on cells; Target on MKN-45 (DSMZ ACC409) and LS180 (ATCC CL-187) cells; also called carcinoembryonic antigen-related cell adhesion molecule 5; CD66e
T3 sequence (looked up): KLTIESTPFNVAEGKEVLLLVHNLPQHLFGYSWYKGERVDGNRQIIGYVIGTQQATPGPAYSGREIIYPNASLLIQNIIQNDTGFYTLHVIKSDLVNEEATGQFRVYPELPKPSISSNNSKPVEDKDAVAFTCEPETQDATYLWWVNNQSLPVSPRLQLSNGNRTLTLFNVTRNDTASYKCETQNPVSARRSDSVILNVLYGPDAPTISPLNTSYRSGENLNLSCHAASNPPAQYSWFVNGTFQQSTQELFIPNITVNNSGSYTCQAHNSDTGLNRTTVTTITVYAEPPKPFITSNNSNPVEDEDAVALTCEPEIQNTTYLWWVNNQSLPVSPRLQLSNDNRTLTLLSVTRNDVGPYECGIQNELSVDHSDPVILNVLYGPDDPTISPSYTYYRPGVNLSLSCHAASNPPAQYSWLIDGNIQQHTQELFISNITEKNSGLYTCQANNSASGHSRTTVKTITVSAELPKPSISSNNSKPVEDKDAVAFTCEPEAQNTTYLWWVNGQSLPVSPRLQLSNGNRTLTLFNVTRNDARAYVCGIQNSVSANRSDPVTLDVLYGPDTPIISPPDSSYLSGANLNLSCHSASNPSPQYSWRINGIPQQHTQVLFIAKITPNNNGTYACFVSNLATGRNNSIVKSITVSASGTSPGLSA

B1: P1AI5015 (antibody, human IgG1, V domains shown)
VH: EVQLVESGGGLVQPGGSLRLSCAASGFNIKDTYMHWVRQAPGKGLEWVGRIDPANGNSKYADSVKGRFTISADTSKNTAYLQMNSLRAEDTAVYYCAPFGYYVSDYAMAYWGQGTTVTVSS
VL: EIVLTQSPATLSLSPGERATLSCRAGESVDIFGVGFLHWYQQKPGQAPRLLIYRGSNRATGIPARFSGSGSGTDFTLTISSLEPEDFAVYYCQQTYEYPYTFGQGTKLEIK
B2: P1AI5018 (antibody, human IgG1, V domains shown)
VH: B1 VH
VL: B1 VL with Y96T
B3: P1AI5017 (antibody, human IgG1, V domains shown)
VH: B1 VH
VL: B1 VL with Y96S
B4: P1AI5016 (antibody, human IgG1, V domains shown)
VH: B1 VH
VL: B1 VL with Y96V
B5: P1AI5031 (antibody, human IgG1, V domains shown)
VH: B1 VH
VL: B1 VL with A59M, Y96N, Y98D
notes: also called 24_A55M
B6: P1AI5014 (antibody, human IgG1, V domains shown)
VH: B1 VH
VL: B1 VL with Y96N, Y98D

biological target: T1, human CEACAM1; test: FACS on CHO cells overexpressing human CEACAM1
Experimental: (§1) Viability of CHO-CEACAM1 (CHO cells overexpressing human CEACAM1) and CHO-CEACAM6 (CHO cells overexpressing human CEACAM6) cells was checked. Then 100 μl of re-suspended target cells were seeded into a U-bottom plate (100′000 cells/well). The antibodies were diluted in FACS buffer. The plates were centrifuged for 4 min at 400×g and supernatant was removed. Then 25 µl/well of the diluted antibodies were added to the cells. The cells were incubated for 45 min at 4° C. After the incubation, cells were washed twice and 25 μl/well of diluted (1/100 in FACS buffer) PE anti-human Fc secondary antibody (Jackson Immuno Research, #109-116-170) or the directly labeled CD66 antibody (Clone B1.1/CD66, BD Bioscience, #551480) was added to the cells. The cells were incubated for 45 min at 4° C. After the incubation, cells were washed twice. Then cells were re-suspended in 150 μl/well of FACS buffer. Cell binding was measured on the BD LSRFortessa Flow Cytometer, the same day.

Row | binding result | Binder
1 | no binding | B1
2 | no binding | B2
3 | no binding | B3
4 | no binding | B4
5 | no binding | B5
6 | no binding | B6

biological target: T2, human CEACAM6; test: FACS on CHO cells overexpressing human CEACAM6
Experimental: as §1

Row | binding result | Binder
7 | no binding | B1
8 | no binding | B2
9 | no binding | B3
10 | no binding | B4
11 | no binding | B5
12 | no binding | B6

biological target: T3, human CEACAM5; test: FACS on MKN-45 cells expressing human CEACAM5
Experimental: 10 μl of a 1×10⁴ MKN-45 (DSMZ ACC409) cell suspension in assay buffer was seeded in all Wells of a 384 well polypropylene plate (Weidmann #23490-101). Then 10 μl of antibodies diluted in assay buffer (double concentrated), at a start concentration of 100 μg/ml, serially diluted 1:4 were added to the plate. After 90 minutes incubation at 4° C., 60 μl assay buffer was added followed by a centrifuge step (330×g, 5 min) and an aspirating step (BioTek washer 405H) where 60 μl of supernatant were discarded. 20 μl of detection antibody (Alpaca anti rabbit IgG Chromotek #srbAF647-1) diluted in assay buffer (double concentrated) to a final concentration of 0.5 μg/ml was added to all Wells followed by 1 hour incubation time at room temperature. The cells were then subjected to two washing steps with 40 μl and 60 μl assay buffer as described above and then resuspended in 20 μl assay buffer. Cell binding was measured on an iQue Screener Plus high throughput FACS device from Sartorius/Intellicyt.

Row | EC50 [µg/mL] | Binder
13 | 0.483 | B1
14 | 0.65 | B2
15 | 0.762 | B3
16 | 0.588 | B4
17 | 2.42 | B5
18 | 1.53 | B6
